Results reported in article PMC8745191.
Substitutions are numbered along the chain they refer to.

Key:
Conditions in all cases: LightShift Chemiluminescent EMSA kit, manufacturer's protocol; binding buffer, pH and temperature not stated; protein eluted in 20 mM Tris-HCl pH 8.0, 500 mM …
[1] = biological target: T1, His-STOP1 (Arabidopsis thaliana) (UniProt Q9C8N5); assay: competition
T1 sequence: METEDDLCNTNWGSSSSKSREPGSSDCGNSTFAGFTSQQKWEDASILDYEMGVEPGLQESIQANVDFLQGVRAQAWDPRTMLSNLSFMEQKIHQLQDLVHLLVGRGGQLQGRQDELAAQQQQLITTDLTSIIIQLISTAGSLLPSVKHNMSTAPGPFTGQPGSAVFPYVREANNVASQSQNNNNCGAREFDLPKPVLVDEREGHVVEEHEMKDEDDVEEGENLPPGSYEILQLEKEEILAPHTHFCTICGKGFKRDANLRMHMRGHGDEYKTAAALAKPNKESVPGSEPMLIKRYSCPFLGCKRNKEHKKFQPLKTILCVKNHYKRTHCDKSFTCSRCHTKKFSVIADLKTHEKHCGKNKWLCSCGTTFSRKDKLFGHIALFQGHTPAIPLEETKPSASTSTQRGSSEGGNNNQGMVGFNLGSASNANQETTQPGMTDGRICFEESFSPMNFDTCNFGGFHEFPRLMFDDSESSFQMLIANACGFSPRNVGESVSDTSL

[2] = biological target: T1, His-STOP1 (Arabidopsis thaliana); assay: EMSA
[3] = biological target: T2, His-STOP1 H266Y H266Y (Arabidopsis thaliana (stop1-1 allele)) (UniProt Q9C8N5); assay: EMSA
T2 sequence: T1 sequence with H266Y

Row | Sequence | binding [1] | binding [2] | binding [3]
1 | TTGCATTTAAATTATCAAAGACTAAGATAAGCCTAGAATAATTTAAAATGTAAACTATAGTATACGTCAGAACCTACAGATACAACCTTCCTCGTATAATCCCTAAACAGAATTTTAATT (double strand) [P3 unlabeled competitor (cold probe)] | binds |  | 
2 | TTGCATTTAAATTATCAAAGACTAAGATAAGCCTAGAATAATTTAAAATGTAAACTATAGTATACGTCAGAACCTACAGATACAACCTTCCTCGTATAATCCCTAAACAGAATTTTAATT (double strand) [P3 (F2-2) LKS1 promoter probe] |  | binds | no binding
